This is an account of results in the supplement of paper PMC5998384.

Data set [1] deals with HeLa Kyoto. The data set is described as follows: melting temperature (median over replicates), in situ; higher = more thermally stable.
For data set [2], the system named is HeLa Kyoto. In words: solubility in G1/S (NP-40 vs SDS abundance) (log2 ratio); higher = more soluble. As to conditions: cell cycle stage: G1/S.
In data set [3] the test system is HeLa Kyoto. In words: solubility change mitosis vs G1/S (difference of NP-40 vs SDS log2 ratios) (log2 ratio difference); higher = more soluble in mitosis.
Data set [4] has as its system HeLa Kyoto. The data set is described as follows: thermal stability score vs G1/S (z-score of summed log2 fold changes over temperatures); higher = more thermally stable than in G1/S.
Setting [5] is: cell cycle stage: early G1 (4.5 h after nocodazole release).
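For melting temperature (median over replicates), in situ in this document: HeLa Kyoto cells synchronized by double thymidine or nocodazole block, proteins quantified by TMT10plex mass spectrometry, three independent biological replicates.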
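For solubility change mitosis vs G1/S (difference of NP-40 vs SDS log2 ratios) in this document: synchronized HeLa Kyoto cells (double thymidine block for G1/S, nocodazole release for mitosis), protein amounts in NP-40 versus SDS lysates quantified by mass spectrometry, three biological replicates.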
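For solubility in G1/S (NP-40 vs SDS abundance) in this document: HeLa Kyoto cells arrested at G1/S by double thymidine block, proteins quantified by TMT10plex mass spectrometry in mild NP-40 versus SDS extracts, three biological replicates.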
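For thermal stability score vs G1/S (z-score of summed log2 fold changes over temperatures) in this document: synchronized HeLa Kyoto cells, proteins quantified by TMT10plex mass spectrometry, three biological replicates, mitosis taken 0.5 h after nocodazole release, G1/S directly after double thymidine block.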

Regarding “MNWNKGGPGTKRGFGFGGFAISAGKKEEPKLPQQSHSAFGATSSSSGFGKSAPPQLPSFYKIGSKRANFDEENAYFEDEEEDSSNVDLPYIPAENSPTRQQFHSKPVDSDSDDDPLEAFMAEVEDQAARDMKRLEEKDKERKNVKGIRDDIEEEDDQEAYFRYMAENPTAGVVQEEEEDNLEYDSDGNPIAPTKKIIDPLPPIDHSEIDYPPFEKNFYNEHEEITNLTPQQLIDLRHKLNLRVSGAAPPRPGSSFAHFGFDEQLMHQIRKSEYTQPTPIQCQGVPVALSGRDMIGIAKTGSGKTAAFIWPMLIHIMDQKELEPGDGPIAVIVCPTRELCQQIHAECKRFGKAYNLRSVAVYGGGSMWEQAKALQEGAEIVVCTPGRLIDHVKKKATNLQRVSYLVFDEADRMFDMGFEYQVRSIASHVRPDRQTLLFSATFRKKIEKLARDILIDPIRVVQGDIGEANEDVTQIVEILHSGPSKWNWLTRRLVEFTSSGSVLLFVTKKANAEELANNLKQEGHNLGLLHGDMDQSERNKVISDFKKKDIPVLVATDVAARGLDIPSIKTVINYDVARDIDTHTHRIGRTGRAGEKGVAYTLLTPKDSNFAGDLVRNLEGANQHVSKELLDLAMQNAWFRKSRFKGGKGKKLNIGGGGLGYRERPGLGSENMDRGNNNVMSNYEAYKPSTGAMGDRLTAMKAAFQSQYKSHFVAASLSNQKAGSSAAGASGWTSAGSLNSVPTNSAQQGHNSPDSPVTSAAKGIPGFGNTGNISGAPVTYPSAGAQGVNNTASGNNSREGTGGSNGKRERYTENRGSSRHSHGETGNRHSDSPRHGDGGRHGDGYRHPESSSRHTDGHRHGENRHGGSAGRHGENRGANDGRNGESRKEAFNRESKMEPKMEPKVDSSKMDKVDSKTDKTADGFAVPEPPKRKKSRWDS [DDX42]”, the melting temperature with HeLa Kyoto [1] (cell cycle stage: G1/S) is 47.2 °C; in the data set on HeLa Kyoto [1] (cell cycle stage: mitosis), 48.8 °C. In the data set with HeLa Kyoto [2], the “solubility in G1/S (log2)” value was -0.252. In the data set on HeLa Kyoto [3], the “solubility change mitosis (log2)” value was 0.145. The values for the thermal stability score in the data set with HeLa Kyoto [4] (setting [5]) and with HeLa Kyoto [4] (cell cycle stage: mitosis) were 3.02 and 7.75, respectively.
Take “MPAGRAARTCALLALCLLGAGAQDFGPTRFICTSVPVDADMCAASVAAGGAEELRSSVLQLRETVLQQKETILSQKETIRELTAKLGRCESQSTLDPGAGEARAGGGRKQPGSGKNTMGDLSRTPAAETLSQLGQTLQSLKTRLENLEQYSRLNSSSQTNSLKDLLQSKIDELERQVLSRVNTLEEGKGGPRNDTEERVKIETALTSLHQRISELEKGQKDNRPGDKFQLTFPLRTNYMYAKVKKSLPEMYAFTVCMWLKSSATPGVGTPFSYAVPGQANELVLIEWGNNPMEILINDKVAKLPFVINDGKWHHICVTWTTRDGVWEAYQDGTQGGSGENLAPYHPIKPQGVLVLGQEQDTLGGGFDATQAFVGELAHFNIWDRKLTPGEVYNLATCSTKALSGNVIAWAESHIEIYGGATKWTFEACRQIN [NPTX1]”: the melting temperature in the data set on HeLa Kyoto [1] (cell cycle stage: G1/S) amounted to 54 °C; in the data set with HeLa Kyoto [1] (cell cycle stage: mitosis), 55.4 °C. Moreover, the “solubility in G1/S (log2)” value in the data set with HeLa Kyoto [2] amounted to 0.224. For the same sequence, the “solubility change mitosis (log2)” value in the data set on HeLa Kyoto [3] was -0.119. In addition, the thermal stability score is 3.28 with HeLa Kyoto [4] (setting [5]) and 3.79 with HeLa Kyoto [4] (cell cycle stage: mitosis).
As to “MPATLLRAVARSHHILSKAHQCRRIGHLMLKPLKEFENTTCSTLTIRQSLDLFLPDKTASGLNKSQILEMNQKKSDTSMLSPLNAARCQDEKAHLPTMKSFGTHRRVTHKPNLLGSKWFIKILKRHFSSVSTETFVPKQDFPQVKRPLKASRTRQPSRTNLPVLSVNEDLMHCTAFATADEYHLGNLSQDLASHGYVEVTSLPRDAANILVMGVENSAKEGDPGTIFFFREGAAVFWNVKDKTMKHVMKVLEKHEIQPYEIALVHWENEELNYIKIEGQSKLHRGEIKLNSELDLDDAILEKFAFSNALCLSVKLAIWEASLDKFIESIQSIPEALKAGKKVKLSHEEVMQKIGELFALRHRINLSSDFLITPDFYWDRENLEGLYDKTCQFLSIGRRVKVMNEKLQHCMELTDLMRNHLNEKRALRLEWMIVILITIEVMFELGRVFF [RMND1]”, the melting temperature in the data set with HeLa Kyoto [1] (cell cycle stage: G1/S) amounted to 52.1 °C; in the data set with HeLa Kyoto [1] (cell cycle stage: mitosis) it was 51.2 °C. Also, the “solubility in G1/S (log2)” value in the data set with HeLa Kyoto [2] is -0.145. For the same sequence, in the data set on HeLa Kyoto [3], the “solubility change mitosis (log2)” value was -0.125. In addition, the thermal stability score in the data set on HeLa Kyoto [4] (setting [5]) is -1; in the data set with HeLa Kyoto [4] (cell cycle stage: mitosis) it was -0.87.
Take “MPDENIFLFVPNLIGYARIVFAIISFYFMPCCPLTASSFYLLSGLLDAFDGHAARALNQGTRFGAMLDMLTDRCSTMCLLVNLALLYPGATLFFQISMSLDVASHWLHLHSSVVRGSESHKMIDLSGNPVLRIYYTSRPALFTLCAGNELFYCLLYLFHFSEGPLVGSVGLFRMGLWVTAPIALLKSLISVIHLITAARNMAALDAADRAKKK [CDIPT]”: the melting temperature with HeLa Kyoto [1] (cell cycle stage: G1/S) was 54.7 °C; in the data set with HeLa Kyoto [1] (cell cycle stage: mitosis), 59.4 °C. In addition, the “solubility in G1/S (log2)” value in the data set on HeLa Kyoto [2] was -0.0899. Moreover, in the data set with HeLa Kyoto [3], the “solubility change mitosis (log2)” value was -0.0289. For the same sequence, the results for the thermal stability score in the data set on HeLa Kyoto [4] (setting [5]) and in the data set with HeLa Kyoto [4] (cell cycle stage: mitosis) were -2.08 and -1.66, respectively.
For the sequence “MPEINTNHLDKQQVQLLAEMCILIDENDNKIGAETKKNCHLNENIEKGLLHRAFSVFLFNTENKLLLQQRSDAKITFPGCFTNTCCSHPLSNPAELEESDALGVRRAAQRRLKAELGIPLEEVPPEEINYLTRIHYKAQSDGIWGEHEIDYILLVRKNVTLNPDPNEIKSYCYVSKEELKELLKKAASGEIKITPWFKIIAATFLFKWWDNLNHLNQFVDHEKIYRM [IDI1]”, the melting temperature in the data set with HeLa Kyoto [1] (cell cycle stage: G1/S) worked out at 54.1 °C; in the data set with HeLa Kyoto [1] (cell cycle stage: mitosis), 53.4 °C. Further, the “solubility in G1/S (log2)” value with HeLa Kyoto [2] is 0.145. The “solubility change mitosis (log2)” value with HeLa Kyoto [3] is 0.0595. For the same sequence, the values for the thermal stability score in the data set with HeLa Kyoto [4] (setting [5]) and in the data set with HeLa Kyoto [4] (cell cycle stage: mitosis) were 0.472 and -0.519, respectively.
With “MPEIVDTCSLASPASVCRTKHLHLRCSVDFTRRTLTGTAALTVQSQEDNLRSLVLDTKDLTIEKVVINGQEVKYALGERQSYKGSPMEISLPIALSKNQEIVIEISFETSPKSSALQWLTPEQTSGKEHPYLFSQCQAIHCRAILPCQDTPSVKLTYTAEVSVPKELVALMSAIRDGETPDPEDPSRKIYKFIQKVPIPCYLIALVVGALESRQIGPRTLVWSEKEQVEKSAYEFSETESMLKIAEDLGGPYVWGQYDLLVLPPSFPYGGMENPCLTFVTPTLLAGDKSLSNVIAHEISHSWTGNLVTNKTWDHFWLNEGHTVYLERHICGRLFGEKFRHFNALGGWGELQNSVKTFGETHPFTKLVVDLTDIDPDVAYSSVPYEKGFALLFYLEQLLGGPEIFLGFLKAYVEKFSYKSITTDDWKDFLYSYFKDKVDVLNQVDWNAWLYSPGLPPIKPNYDMTLTNACIALSQRWITAKEDDLNSFNATDLKDLSSHQLNEFLAQTLQRAPLPLGHIKRMQEVYNFNAINNSEIRFRWLRLCIQSKWEDAIPLALKMATEQGRMKFTRPLFKDLAAFDKSHDQAVRTYQEHKASMHPVTAMLVGKDLKVD [LTA4H]”, the melting temperature in the data set on HeLa Kyoto [1] (cell cycle stage: G1/S) and in the data set on HeLa Kyoto [1] (cell cycle stage: mitosis) was 53 °C each time. The “solubility in G1/S (log2)” value with HeLa Kyoto [2] came to 0.0608. In the data set on HeLa Kyoto [3], the “solubility change mitosis (log2)” value was -0.173. Further, the thermal stability score in the data set with HeLa Kyoto [4] (setting [5]) is 1.7; in the data set on HeLa Kyoto [4] (cell cycle stage: mitosis) it was 0.372.
Take “MPENVAPRSGATAGAAGGRGKGAYQDRDKPAQIRFSNISAAKAVADAIRTSLGPKGMDKMIQDGKGDVTITNDGATILKQMQVLHPAARMLVELSKAQDIEAGDGTTSVVIIAGSLLDSCTKLLQKGIHPTIISESFQKALEKGIEILTDMSRPVELSDRETLLNSATTSLNSKVVSQYSSLLSPMSVNAVMKVIDPATATSVDLRDIKIVKKLGGTIDDCELVEGLVLTQKVSNSGITRVEKAKIGLIQFCLSAPKTDMDNQIVVSDYAQMDRVLREERAYILNLVKQIKKTGCNVLLIQKSILRDALSDLALHFLNKMKIMVIKDIEREDIEFICKTIGTKPVAHIDQFTADMLGSAELAEEVNLNGSGKLLKITGCASPGKTVTIVVRGSNKLVIEEAERSIHDALCVIRCLVKKRALIAGGGAPEIELALRLTEYSRTLSGMESYCVRAFADAMEVIPSTLAENAGLNPISTVTELRNRHAQGEKTAGINVRKGGISNILEELVVQPLLVSVSALTLATETVRSILKIDDVVNTR [CCT4]”: the melting temperature with HeLa Kyoto [1] (cell cycle stage: G1/S) is 53.6 °C; with HeLa Kyoto [1] (cell cycle stage: mitosis), 53.1 °C. The “solubility in G1/S (log2)” value with HeLa Kyoto [2] was 0.192. For the same sequence, the “solubility change mitosis (log2)” value in the data set with HeLa Kyoto [3] is -0.141. Moreover, the thermal stability score in the data set on HeLa Kyoto [4] (setting [5]) was -1.23; with HeLa Kyoto [4] (cell cycle stage: mitosis), -2.24.
“MPGETEEPRPPEQQDQEGGEAAKAAPEEPQQRPPEAVAAAPAGTTSSRVLRGGRDRGRAAAAAAAAAVSRRRKAEYPRRRRSSPSARPPDVPGQQPQAAKSPSPVQGKKSPRLLCIEKVTTDKDPKEEKEEEDDSALPQEVSIAASRPSRGWRSSRTSVSRHRDTENTRSSRSKTGSLQLICKSEPNTDQLDYDVGEEHQSPGGISSEEEEEEEEEMLISEEEIPFKDDPRDETYKPHLERETPKPRRKSGKVKEEKEKKEIKVEVEVEVKEEENEIREDEEPPRKRGRRRKDDKSPRLPKRRKKPPIQYVRCEMEGCGTVLAHPRYLQHHIKYQHLLKKKYVCPHPSCGRLFRLQKQLLRHAKHHTDQRDYICEYCARAFKSSHNLAVHRMIHTGEKPLQCEICGFTCRQKASLNWHMKKHDADSFYQFSCNICGKKFEKKDSVVAHKAKSHPEVLIAEALAANAGALITSTDILGTNPESLTQPSDGQGLPLLPEPLGNSTSGECLLLEAEGMSKSYCSGTERVSLMADGKIFVGSGSSGGTEGLVMNSDILGATTEVLIEDSDSAGP [ZFP91]”: the values for the melting temperature in the data set on HeLa Kyoto [1] (cell cycle stage: G1/S) and in the data set with HeLa Kyoto [1] (cell cycle stage: mitosis) were 51.9 °C and 53.2 °C, respectively. Further, in the data set with HeLa Kyoto [2], the “solubility in G1/S (log2)” value was -0.401. The “solubility change mitosis (log2)” value in the data set on HeLa Kyoto [3] came to 0.0732. Besides, the thermal stability score in the data set with HeLa Kyoto [4] (setting [5]) was 2.06; with HeLa Kyoto [4] (cell cycle stage: mitosis), 1.42.
